Measured values taken from article PMC3135353 (The Journal of Experimental Medicine, 2011).
Positions count from the first letter of the chain named. Names may count otherwise. Each block holds one binder with its values, some of them ahead of it.

Target: T1, B7-H6, extracellular portion (residues Asp25-Ser262) (human, UniProt Q68D85 25-262, N-linked glycans seen at Asn43, Asn57 and Asn208)
T1 sequence (looked up): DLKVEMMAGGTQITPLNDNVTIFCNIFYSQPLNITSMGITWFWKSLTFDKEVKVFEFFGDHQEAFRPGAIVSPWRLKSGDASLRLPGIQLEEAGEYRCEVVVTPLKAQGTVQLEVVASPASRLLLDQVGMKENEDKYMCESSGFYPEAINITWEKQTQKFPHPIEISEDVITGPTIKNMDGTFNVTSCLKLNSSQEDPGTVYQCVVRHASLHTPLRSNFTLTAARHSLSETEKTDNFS
Assay: SPR

Kd: 53 µM
B1: NKp30 F85A/L86A mutant, extracellular portion (domain or fragment, human, UniProt O14931 19-135, looked up)
chain: LWVSQPPEIRTLEGSSAFLPCSFNASQGRLAIGSVTWFRDEVVPGKEVRNGTPEFRGRLAPLASSRAAHDHQAELHIRDVRGHDASIYVCRVEVLGLGVGTGNGTRLVVEKEHPQLG

Kd: 150 µM
B2: NKp30 S52R mutant, extracellular portion (domain or fragment, human, UniProt O14931 19-135, looked up)
chain: B1 chain with S34R, A67F, A68L

Kd: 14 µM
B3: NKp30 I50A/S52A mutant, extracellular portion (domain or fragment, human, UniProt O14931 19-135, looked up)
chain: B1 chain with I32A, S34A, A67F, A68L
